Results on 30 sequences are retold here after the nanobody polyreactivity screen of Harvey et al. (2022).

This data set is described as follows: yeast display, Sf9 membrane polyspecificity reagent, FACS + sequencing; frameworks hold sequencing errors. A digest of the protocol: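 Galactose-induced (36–48 hours) yeast carrying a synthetic nanobody display library were exposed to 10% biotinylated, detergent-solubilized Sf9 membrane reagent at 4 °C for 1 hour. FACS followed streptavidin microbead enrichment, using low and high (top ~1%) gates for expression (anti-HA) and reagent binding (streptavidin). Colony PCR, MiSeq 2 × 250 sequencing and CDR-length filtering followed. Labels for polyreactivity reflect the gate of origin.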
On to “QVQLVESGGGLVQAGGSLRLSCAASGRIFYWNVMGWYRQAPGKERELVAAISSSGASTSYADSEKGRFTISRDNEKNTVYLQMNSLKPEVTAGYYCDARTRRNYRQYNYWGQATQVTVSS”, for which the “polyreactivity (PSR sort gate)” value is on record as “high polyreactivity”.

With “QVQLVESWGGLVQAGGSLRLSCAASGSTFTTNAMGWYRQAPGKERELVATMSGGGSTYYADSVKGSFTISRDNAKHTVYLQTNSLKPEDTAVYYCAKPTYRFYWGDFDYWGQGTQVTLSS”, the “polyreactivity (PSR sort gate)” value was “low polyreactivity”. With “QVQLVESGGGLVQAGGSLRLSCAASGSTFFTNAMGWYRQAPGKERELVAAITINDGSTFYADSVKGRFTITRDNAKNTVYLQMNSLKPEDTAVYYCNADGVDLYDYWGQGTQVTVSS”, the “polyreactivity (PSR sort gate)” value is on record as “low polyreactivity”. The value for “QVQLVESGGGLVQAGGSLRLSCAASGFTFDIYGMGWYRQAPGKERELVASITSRSARTNYADSVKGRFRISRDNAMNTVYLQMNSLKPEDSAVYYCAADPYTGYTYYWGQVTQVTVSS” was “high polyreactivity”; that for “QVQLVESGGGLDQAGGSLRLSCAASGRISIRNAMGWYRQAPGKETELVAAISRSGGSTYYADSLKGRFTISRDNAKNTVYLQMNSLKPEDTAVYYCAARGYSTYPMDYWGQGTQVTVSS” was “high polyreactivity”; that for “QDQLVESGGGLVQAGGSLRISCAASGSTFIYNAMGWYRQAPGKERELVATITGRGSTYYAYSVKGRFTISRDNAKNTVYLQLNSLKPEDTAVYYCAATIFNSFYWRYGYWGQGSQVTVSS” was “low polyreactivity”. The value for “QVQLVESGGGLVQAGGSLRLSCAGSGSTFGRYAMGWYRQAPGKERELVAAITSDTGNTNYADSVKGRFTISRDNAKNTVYLQMNSLKPEDTAVYYCAAATFWVLWGHVIGNYDSWGQGTQVTVSS” was “low polyreactivity”; that for “QVQLVESGGGLVQAGGSLRLSCAASGRILYDYDMGWYRQAPGKERELVATISRGGGTNYADSVKGRFTISRDNAKNTVYLQMNSLKPEDTAVYYCAADRWYSRYTRYGYWGQGTQVTVSS” was “low polyreactivity”. The value for “QVQLVESGGGLVQAGGSLRLSCAASGSTFPFYAMGWYRQAPGKERELVAAITSGGSTYADSVKGRFTISRDNAKNTVYLQMNSLNPEDTAVYYCAASWPRWWRFGYWGQGTQVTVSS” was “low polyreactivity”; that for “QVQLVESGGGLVQAGGSLRLSCAASGRIFPIYAMGWYRQAPGKERELVAAISRTDGTTYYADSVKGRFTISRDYANNTVYLQMNSLKPEDTAVYYCAADYLRAPYYQYEYWGQGTQVTVSS” was “low polyreactivity”; that for “QVQLVESGGGLVQAGASLRLSCAASGSIFGVNAMGWYRQAPGKERELVAAISVSGGRTYYADSVKGRFTISRDNAKNTVYLLMNSLKPEDTAVYYCAATTYIWPYDYWGQGTQVTVSS” was “low polyreactivity”. As to “QVQLVESGGGLVQAGGSLRLSCAASGFIFTSYAMAWYRQAPGKERELVAAIDYSGGSTYYADSVKGRFTISRDNAKNTVYLQINSLKPEDTAVYYCSAGEGLWPGSQTYDYWGQATQVTVSS”, the “polyreactivity (PSR sort gate)” value is “low polyreactivity”.

As for “QVQLVDSGGGLVQAGGSLRLSCAASGRTCYTNAMGWYRQAPGKERELVAAINRSGGSTYYADSVKGRFTISRDNAKNTVYLQMNSLKPEDTAVYYCNKAFTHTKYLSPIAYEYGYWGQGTQVTVSS”, the “polyreactivity (PSR sort gate)” value is recorded as “low polyreactivity”.

Consider “QVQLVESGGGLVQAGGSLRLSCAASGRTIRYNALGWYREARGKERELVASIRRGGSTNYADSVKGRCTISRDNAKNPVYLHMNSLKPEDTAVSYCAAAGGGVRKVWGGSRYGYWGQGTQVTVSS”, for which the “polyreactivity (PSR sort gate)” value is given as “high polyreactivity”.

For the sequence “QVQLVESGGGLVQAGGSLRLSCAASGITFVPYAMGWDRQAPGKERELVAAISSSGGSTYYADSVKGRFTISRDNAKNTVYLQMNSLKPEDTAVYYCNVRTHSYIGMDYWGQGTQVTVSS”, the “polyreactivity (PSR sort gate)” value is “low polyreactivity”. The value for “QVQLVESGGGLVQAGGSLRLSCAASGFTFAVYTMGWYRQAPGKERELVAAITASGGSMHYADSVKGRFTISRDNVKNTVYLQMNSLKPEDTAVYYCAARPRLYQYYYWGQGTQVTVSS” was “high polyreactivity”. The value for “QVQLVESGGGLVQAGGSLRLSCAASGLTLYKNGMGWYRQAPGKERELVAVISRSGGRTYYADSVKGRFTISRDNAKNTVYLQMNSLKPEDTAVYYCAAAWYSSSRYQGIYRFDYWGQGTQVTVSS” was “high polyreactivity”; that for “QVQHVESGAGLVQAGGSLRLSCAASGNTINFYAMGWYRQPPGKESELVASITSGGGTNYADSVKGRFTISRDNAKNTVYLQMNSLKPEDTAVYYCAAQFYDHFRYHFDWGQGTQVTVSS” was “low polyreactivity”; that for “QVQLVESGGGLVQAGGSLRLSCAASGSIFPFYAMGWYRQAPGKERELVATISWSGGRTYYADSVKGRFTISRDNAKYTVDLQMNTLKPEDTAVYYCAAGSYHYPNAYYYWGQGTQVTVSS” was “high polyreactivity”. The value for “QVQLVESGGGLVQAGGSLRLSCSASVRTFYRNSMGWYRQAPGKEREFVAVISVSGGSTYYADSVKGRFTISRDNAKNTVYLQMNSLKPEDTAVYYCAADEYYTFSSFELRRMDYWGQGTQVTVSS” was “low polyreactivity”; that for “QVQLEESGGGLVQAGGSLRLSCAASGRTFYVNAMGWYRQATGKERELVAAISWSGGSTYYADSVKGRFTISRDNAKNTVYLQINSLKPEDTAVYYCAAEDIEDYEYWGQGTQVTVSS” was “low polyreactivity”; that for “QVQLVESGGGLVQAGGSLRLSCAASGIIFFNNVMGWYRQAPGKERVLVAGITYTGGSTYYADSVKGRFTISRDNAKNTVYLHMNSLKPEDTAVYNCNKDYANTRRVTEYDYWGQGTQVTVSS” was “low polyreactivity”.

On to “QVQLVESGGGLVQAGGSLRLSCAASGFTFDYYAMGWYRQAPGKERELVAAISSSGGSTYYADSVKGRFTISRDNAKNTVYLQMNSLKPEDTAVYYCATGHSKKYDYWGQGTQVTVSS”, for which the “polyreactivity (PSR sort gate)” value was “high polyreactivity”.

Regarding “QVQLVESGGGLVQAGGSLRLSCAASGRTFSGYAMGWYRQAPGKERELVAAISSGGGSTYYADSVKGRFTISRDNAKNTVYLQMNSLKPEDTAVYYCAADGYPGDYDYWRQGTQVTVSS”, the “polyreactivity (PSR sort gate)” value is listed as “low polyreactivity”. Consider “QVQLVESGGGLVQAGGSLRLSCAASGSTIDVYTMGWYRQAPGKERELVAAISRGSSTYYADSVKGRFTISRDNAKNTVYLQMNSLKPEDTAVYYCNAVTSRKYRRYGYGYWGQGTQVTVSS”, for which the “polyreactivity (PSR sort gate)” value was “high polyreactivity”. For “QVHLVESGGALVQAGGSLRLSCAASVIVFKRYAMGWYRQAPGKEREFVATISYTGGRTYYADSVKGRFTISRDNAKNTVYFQMNSLKPEDTAGYYCATLYRSSKHQPLDYWGQGTQVTVSS”, the “polyreactivity (PSR sort gate)” value was “high polyreactivity”. The value for “QVQLVESGGGLVQAGGSLRLSCAASGSIFLDYAMGWYRQAPGKERELVAGITISGGSTYYADSVKGRFTISRDNAKNTVYLQMNSLKPEDTAVYYCAKVAPRSSSSQEYYYWGQGTQVTVSS” was “low polyreactivity”. The value for “QLQLVESGACLVQAGGSLRLSCAASGRIFTSYSMGWYRHAPGKEREMVAAINRGADTYYADSVKGRFTISRDNAKNTVYLQMNSVKPEDNAVYYCNAADAVSDYPDFQIYDYWGQGTQVTVSS” was “low polyreactivity”. The value for “QVQLVESVGGLVQAGGSLRLSCAASGITFFNYAMGWYRQAPGKERELVARINWSGGSTYYADSVTGRFTISRDNAKNTVYLQMNSLKPEDTAVYYCAARYWLPRGRRYDYWGQGTQVTVSS” was “high polyreactivity”; that for “QDQHVESVGGLVQAGGSLLLSCAASGFTLRGYALGWDRQAPGKERELVADISGGGSTDYADSVKGRFTISRDNAKNTVYLQMNSLKPLDTAVYYCAAYGYLWWEMDYWGQGTQVTLSS” was “high polyreactivity”.
